The star is where a group is joined. FITC = O=C1OC2(c3ccc(O)cc3Oc3cc(O)ccc32)c2ccc(NC(=S)*)cc21; Ahx = NCCCCCC(=O)O

Consider 5 molecules from article PMC8466238, “Development of High Affinity Calcitonin Analog Fragments Targeting Extracellular Domains of Calcitonin Family Receptors” (Biomolecules, 2021).

One experiment concerns CGRP receptor. The following applies: versus CGRP(27–37); cited from earlier work. The text has this: The mutational strategies for developing high-affinity sCT peptide fragments came from the systemic report on CGRP and its high-affinity analogs. […] This supports the idea that applying affinity-enhancing mutations to the cor ...
Experiment [1] has as its system RAMP3-CTR ECD fusion protein. The experiment in a line: FP peptide binding assay of FITC-labeled probes with CTR ECD alone and RAMP3-CTR ECD fusion protein (Figure S1D). Also noted: species or system human. The conditions noted are these: FP binding with rising receptor ECD concentration. Here is the method: HEK293S GnTI^− cells were used to express the RAMP3-CTR ECD fusion protein. The general procedures of receptor ECD expression and purification from HEK293S GnTI^− cells were previously described. HEK293S GnTI^− cells were transiently transfected with the DNA expression vector (H-pSL001) using polyethylenimine (PEI) at 1:1.5 ratio (DNA:PEI, w/w). Transfected cells were incubated for 4 days at 37 °C. All protein purification was performed at 4 °C unless otherwise noted. Cell culture media were collected and dialyzed to dialysis buffer overnight. The next day, dialyzed cell culture media were loaded to IMAC chromatography. Peak fractions from IMAC chromatography were spin-concentrated (MWCO 10 kDa) and injected into SEC. […]
The overall procedures of FP peptide binding assay with receptor ECDs and FITC-labeled peptide probes were previously described. […] A SpectraiD5 (Molecular Devices, San Jose, CA, USA) was used to measure fluorescence polarization/anisotropy. […] For the saturation binding assay, the anisotropy values were re-calculated when total fluorescence intensity was changed by more than 10% as previously described. However, effects of fluorescence intensity changes on the affinity values (KI) obtained from the competition binding assay was reported to be minimum and re-calculation of anisotropy was not applied. […] Mean and standard deviation of peptide ligand affinity were calculated from them. […]

A further experiment has as its target T1, FITC-labeled sCT(22–32) (salmon, SMILES …).
T1 construct: salmon calcitonin (sCT), residues 22-32; numbers count on: the mature 32-residue hormone; peptide probe of the FP assay with the CTR ECD; also called FITC-sCT(22–32); source: synthetic peptide (Genscript, HPLC-purified)
T1 peptide: {FITC-Ahx}-YPRTNTGSGTP-NH2
Description: fluorescence polarisation; saturation binding: FITC-labeled peptide probe (10 nM) with rising receptor ECD concentrations; receptor ECD concentration at half of the maximal anisotropy. The following applies: both partners purified. Background: Polarisation of emitted light reports the rotation of a fluorescent probe.

In experiment [2] the target is T2, RAMP1-CTR ECD fusion protein (hRAMP1.24–111-(GSA)3-hCTR.34–141-H6) (human, UniProt O60894 24-111; P30988 34-141).
T2 construct: human receptor activity-modifying protein 1 (RAMP1), extracellular domain, residues 24-111; linker, printed as (GSA)3; human calcitonin receptor (CTR), extracellular domain, residues 34-141; Secreted from a pHLsec-based vector; also called AMY receptor 1 ECD; RAMP1 ECD-CTR ECD fusion; source: HEK293T, transiently transfected, secreted to cell culture media, purified (IMAC, SEC)
T2 chain: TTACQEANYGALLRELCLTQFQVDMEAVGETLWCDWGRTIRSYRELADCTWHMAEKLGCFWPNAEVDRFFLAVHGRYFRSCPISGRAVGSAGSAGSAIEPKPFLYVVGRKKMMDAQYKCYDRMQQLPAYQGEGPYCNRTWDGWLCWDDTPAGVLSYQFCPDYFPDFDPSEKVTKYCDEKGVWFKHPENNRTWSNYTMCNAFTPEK
The experiment in a line: fluorescence polarisation; competition binding, full curves: FITC-AC413(6–25) Y25P probe 10 nM, RAMP1-CTR ECD 77 nM, RAMP2-CTR ECD 67 nM or RAMP3-CTR ECD 252 nM, competitive peptide at multiple concentrations, all in solution; KI from non-linear regression of anisotropy. The following applies: both partners purified.

Experiment [3] has as its target T3, RAMP2-CTR ECD fusion protein (hRAMP2.55–140-(GSA)3-hCTR.34–141-H6) (human, UniProt O60895 55-140; P30988 34-141).
T3 construct: human receptor activity-modifying protein 2 (RAMP2), extracellular domain, residues 55-140; linker, printed as (GSA)3; human calcitonin receptor (CTR), extracellular domain, residues 34-141; Secreted from a pHLsec-based vector; also called AMY receptor 2 ECD; RAMP2 ECD-CTR ECD fusion; source: HEK293T, transiently transfected, secreted to cell culture media, purified (IMAC, SEC)
T3 chain: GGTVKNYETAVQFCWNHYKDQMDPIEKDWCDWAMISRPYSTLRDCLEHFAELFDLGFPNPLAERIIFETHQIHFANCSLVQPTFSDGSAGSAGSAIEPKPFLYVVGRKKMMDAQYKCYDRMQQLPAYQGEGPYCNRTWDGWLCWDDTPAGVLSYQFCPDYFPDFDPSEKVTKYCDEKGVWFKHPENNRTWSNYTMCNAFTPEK
The description is as above. The following applies: both partners purified.

Experiment [4] has as its target T4, RAMP3-CTR ECD fusion protein (hRAMP3.25–112-(GSA)3-hCTR.34–141-H6) (human, UniProt O60896 25-112; P30988 34-141).
T4 construct: human receptor activity-modifying protein 3 (RAMP3), extracellular domain, residues 25-112; linker, printed as (GSA)3; human calcitonin receptor (CTR), extracellular domain, residues 34-141; Secreted from a pHLsec-based vector; also called AMY receptor 3 ECD; RAMP3 ECD-CTR ECD fusion protein; source: HEK293S GnTI-, transiently transfected (PEI), secreted to cell culture media, purified (IMAC, SEC)
T4 chain: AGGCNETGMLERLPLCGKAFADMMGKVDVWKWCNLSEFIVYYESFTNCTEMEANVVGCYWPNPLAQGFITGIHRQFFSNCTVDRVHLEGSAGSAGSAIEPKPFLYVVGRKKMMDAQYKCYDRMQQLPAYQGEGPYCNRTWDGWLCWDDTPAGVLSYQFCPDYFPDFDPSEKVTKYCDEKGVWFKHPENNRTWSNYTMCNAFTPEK
The experiment is described as above. The conditions noted are these: both partners purified.

With “CGRPmut: human alpha CGRP(27–37) with N31D, S34P, and K35F mutations”, the “increase in CGRP affinity for its receptor” value in the experiment with CGRP receptor is 100 fold. Turning to “{FITC-Ahx}-ANFLVRLQTYPRTNVGANTP-NH2 [FITC-AC413(6–25) Y25P, FITC-labeled AC413(6–25) with Y25P mutation, probe for AMY receptor ECDs]”, the “affinity for the RAMP3-CTR ECD fusion protein compared to FITC-labeled AC413(6–25)” value in experiment [1] is listed as “great affinity increase”. For the molecule “{FITC-Ahx}-ANFLVRLQTYPRTNVGANTY-NH2 [FITC-AC413(6–25), FITC-labeled fragment of the antagonistic amylin analog AC413, peptide probe]”, in experiment [1], the “binding for the RAMP3-CTR ECD fusion protein over CTR ECD alone” value is “selective binding”.

B1: calcitonin receptor extracellular domain (hCTR.34–141-H6) (receptor, human, UniProt P30988 34-141, looked up)
chain: IEPKPFLYVVGRKKMMDAQYKCYDRMQQLPAYQGEGPYCNRTWDGWLCWDDTPAGVLSYQFCPDYFPDFDPSEKVTKYCDEKGVWFKHPENNRTWSNYTMCNAFTPEK
notes: human calcitonin receptor (CTR), extracellular domain, residues 34-141; Secreted from a pHLsec-based vector; also called CTR ECD; purified CTR ECD; source: HEK293T, transiently transfected, secreted to cell culture media, purified (IMAC, SEC)
Turning to B1, the “receptor ECD concentration that produced a half of the maximal anisotropy with the peptide probe” value in the experiment with FITC-labeled sCT(22–32) was found to be 500 nM.

B2: FITC-labeled AC413(6–25) with Y25P mutation (peptide)
peptide: {FITC-Ahx}-ANFLVRLQTYPRTNVGANTP-NH2
SMILES: CC(C)C[C@H](NC(=O)[C@H](CCCNC(=N)N)NC(=O)[C@@H](NC(=O)[C@H](CC(C)C)NC(=O)[C@H](Cc1ccccc1)NC(=O)[C@H](CC(N)=O)NC(=O)[C@H](C)NC(=O)CCCCCNC(=S)Nc1ccc2c(c1)C(=O)OC21c2ccc(O)cc2Oc2cc(O)ccc21)C(C)C)C(=O)N[C@@H](CCC(N)=O)C(=O)N[C@H](C(=O)N[C@@H](Cc1ccc(O)cc1)C(=O)N1CCC[C@H]1C(=O)N[C@@H](CCCNC(=N)N)C(=O)N[C@H](C(=O)N[C@@H](CC(N)=O)C(=O)N[C@H](C(=O)NCC(=O)N[C@@H](C)C(=O)N[C@@H](CC(N)=O)C(=O)N[C@H](C(=O)N1CCC[C@H]1C(N)=O)[C@@H](C)O)C(C)C)[C@@H](C)O)[C@@H](C)O
notes: residues 6-25 of AC413, an antagonistic amylin peptide analog, with Y25P; peptide probe of the FP assay with the AMY receptor ECDs; also called FITC-AC413(6–25) Y25P; source: synthetic peptide (Genscript, HPLC-purified)
For the molecule B2, the binding result in experiment [2], in experiment [3] and in experiment [4] was “binds” throughout.
